US20110117021A1

Target: human VAP-1 expressed on the surface of transfected Ax rat endothelial cells (human) (UniProt Q16853)
Assay: cell-based or functional assay

human VAP-1 expressed on the surface of transfected Ax rat endothelial cells (human), sequence (Q16853 whole entry): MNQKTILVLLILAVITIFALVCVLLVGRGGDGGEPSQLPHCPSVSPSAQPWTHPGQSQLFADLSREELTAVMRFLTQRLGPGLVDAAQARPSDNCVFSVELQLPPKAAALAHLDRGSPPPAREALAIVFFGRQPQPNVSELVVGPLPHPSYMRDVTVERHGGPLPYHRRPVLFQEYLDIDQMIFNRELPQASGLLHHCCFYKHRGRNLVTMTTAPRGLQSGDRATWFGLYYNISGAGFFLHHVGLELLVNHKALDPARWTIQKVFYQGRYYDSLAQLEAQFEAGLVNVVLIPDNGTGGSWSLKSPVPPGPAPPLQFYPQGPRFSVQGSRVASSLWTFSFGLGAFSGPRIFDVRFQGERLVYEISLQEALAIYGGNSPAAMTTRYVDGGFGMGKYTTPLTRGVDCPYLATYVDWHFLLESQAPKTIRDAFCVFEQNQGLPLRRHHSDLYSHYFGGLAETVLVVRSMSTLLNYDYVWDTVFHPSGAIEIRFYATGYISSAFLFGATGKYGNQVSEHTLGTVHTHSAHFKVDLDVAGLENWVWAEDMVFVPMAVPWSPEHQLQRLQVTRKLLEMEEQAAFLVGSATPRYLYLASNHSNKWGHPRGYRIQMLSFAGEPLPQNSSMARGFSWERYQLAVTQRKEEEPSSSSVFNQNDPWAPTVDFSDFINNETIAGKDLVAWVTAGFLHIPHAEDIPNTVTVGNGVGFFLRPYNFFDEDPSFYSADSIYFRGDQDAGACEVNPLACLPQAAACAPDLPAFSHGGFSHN

migration of human PBMC through a monolayer of Ax endothelial cells expressing human VAP-1 (in vitro transmigration assay): 1
Substance: BTT-1002, chimeric anti-VAP-1 monoclonal antibody
